Assay [1] concerns the target T1, class I MHC receptor HLA-A2 on T2 cells (human).
T1 construct: detected on the cell surface with a mouse anti-human HLA-A2 monoclonal antibody and goat anti-mouse IgG F(ab')2-FITC; also called HLA-A2 receptor; HLA-A2 class I MHC
Briefly: T2 cells, anti-HLA-A2 flow cytometry after brefeldin A; Average; 0 hr. The procedure: (§1) Following overnight incubation, the cells were washed and stained with mouse anti-human HLA-A2 monoclonal antibody for 15 min at 4° C.
(§2) After washing, the cells were incubated with goat anti-mouse IgG (F(ab′)₂)-FITC (Sigma, St. Louis, Mo.) for 15 min at 4° C. The cells were washed and analyzed on a FACSort flow cytometer with CellQuest v2.1 software (Becton-Dickson, San Jose, Calif.). […] Up-regulation of HLA-A2 expression correlates with binding of HLA-A2 by the filamin-B peptides.
(§3) To test the stability of the interaction between the peptides and HLA-A2, fluorescence was monitored for several hours following the addition of brefeldin A to the assay.
On the technique in general: A flow cytometer gives signals particle by particle.

Assay [2] has as its target T1, class I MHC receptor HLA-A2 on T2 cells. Briefly: T2 cells, anti-HLA-A2 flow cytometry after brefeldin A; Average; 2 hr. The procedure:
as §1, §2, §3

Assay [3] shares this target. The assay is described as follows: T2 cells, anti-HLA-A2 flow cytometry after brefeldin A; Average; 4 hr. Here is the method: as §1, §2, §3
Assay [4] has the same target. The assay is described as follows: T2 cells, anti-HLA-A2 flow cytometry after brefeldin A; Average; 6 hr. The procedure: as §1, §2, §3
The target is the same in assay [5]. The assay is described as follows: T2 cells, anti-HLA-A2 flow cytometry after brefeldin A; Average; 8 hr. The procedure:
as §1, §2, §3

The target is the same in assay [6]. Briefly: T2 cells, anti-HLA-A2 flow cytometry after brefeldin A; Assay #1; 0 hr. The procedure: as §1, §2, §3
Assay [7] has the same target. Briefly: T2 cells, anti-HLA-A2 flow cytometry after brefeldin A; Assay #1; 2 hr. Here is the method: as §1, §2, §3
Assay [8] shares this target. Briefly: T2 cells, anti-HLA-A2 flow cytometry after brefeldin A; Assay #1; 4 hr. The procedure:
as §1, §2, §3

The target is the same in assay [9]. Briefly: T2 cells, anti-HLA-A2 flow cytometry after brefeldin A; Assay #1; 6 hr. Here is the method: as §1, §2, §3
Assay [10] has the same target. The assay is described as follows: T2 cells, anti-HLA-A2 flow cytometry after brefeldin A; Assay #1; 8 hr. Here is the method: as §1, §2, §3
The target is the same in assay [11]. Briefly: T2 cells, anti-HLA-A2 flow cytometry after brefeldin A; Assay #2; 0 hr. Here is the method:
as §1, §2, §3

Assay [12] has the same target. Briefly: T2 cells, anti-HLA-A2 flow cytometry after brefeldin A; Assay #2; 2 hr. The procedure:
as §1, §2, §3

Assay [13] has the same target. The assay is described as follows: T2 cells, anti-HLA-A2 flow cytometry after brefeldin A; Assay #2; 4 hr. Here is the method:
as §1, §2, §3

Assay [14] has the same target. Briefly: T2 cells, anti-HLA-A2 flow cytometry after brefeldin A; Assay #2; 6 hr. Here is the method: as §1, §2, §3
Assay [15] has the same target. Briefly: T2 cells, anti-HLA-A2 flow cytometry after brefeldin A; Assay #2; 8 hr. Here is the method:
as §1, §2, §3

For assay [16] the target is unchanged. Briefly: T2 cells, anti-HLA-A2 flow cytometry after brefeldin A; Average; 18 hr. The procedure: as §1, §2, §3
Assay [17] shares this target. Briefly: T2 cells pulsed with peptide + b2m, anti-HLA-A2 flow cytometry; Average. The procedure: as §1, §2
Assay [18] shares this target. The assay is described as follows: T2 cells, anti-HLA-A2 flow cytometry after brefeldin A; Assay #1; 18 hr. Here is the method:
as §1, §2, §3

For assay [19] the target is unchanged. The assay is described as follows: T2 cells, anti-HLA-A2 flow cytometry after brefeldin A; Assay #2; 18 hr. The procedure:
as §1, §2, §3

For assay [20] the target is unchanged. Briefly: T2 cells pulsed with peptide + b2m, anti-HLA-A2 flow cytometry; Assay #1. Here is the method: as §1, §2
Assay [21] shares this target. The assay is described as follows: T2 cells pulsed with peptide + b2m, anti-HLA-A2 flow cytometry; Assay #2. The procedure: as §1, §2

B1: Filamin B peptide #6 (peptide)
peptide: GQGDVMVFV
As for B1, the fluorescence index in [1] stood at 2.32 F.I; in assay [2], 1.67 F.I; in assay [3], 1.47 F.I; in [4] it was 1.12 F.I; in assay [5] it was 1.05 F.I; in [6], 2.67 F.I. Also, the fluorescence index in [7] is 1.74 F.I; in assay [8] it was 1.65 F.I; in [9], 1.23 F.I; in assay [10] it was 1.09 F.I; in [11] it was 1.96 F.I; in [12], 1.6 F.I. Moreover, the fluorescence index in assay [13] was found to be 1.29 F.I; in assay [14], 1 F.I; in [15] it was 1 F.I; in assay [16], 1.05 F.I; in [17], 2.32; in assay [18] it was 1.1 F.I. Further, the fluorescence index in assay [19] was 1 F.I; in assay [20], 2.67; in [21] it was 1.96.

B2: Filamin B peptide #1 (peptide)
peptide: LILGLVWTL
For B2, the fluorescence index in assay [1] turned out to be 2.82 F.I; in assay [2], 2.67 F.I; in assay [3], 2.67 F.I; in assay [4], 2.58 F.I; in [5] it was 2.4 F.I; in [6], 3.46 F.I. The fluorescence index is 3.17 F.I in [7]; 3.17 F.I in assay [8]; 3.32 F.I in assay [9]; 3.22 F.I in [10]; 2.17 F.I in assay [11]; 2.17 F.I in [12]. The fluorescence index in [13] turned out to be 2.16 F.I; in assay [14], 1.83 F.I; in [15], 1.57 F.I; in assay [16], 1.9 F.I; in assay [17], 2.82; in assay [18], 2.45 F.I. Besides, the fluorescence index in assay [19] turned out to be 1.35 F.I; in [20], 3.46; in assay [21] it was 2.17.

B3: Filamin B peptide #7 (peptide)
peptide: KLILGLVWT
As to B3, the fluorescence index in [1] was found to be 1.32 F.I; in [2], 1.16 F.I; in assay [3], 1.16 F.I; in assay [4], 1.05 F.I; in assay [5], 1.05 F.I; in [6], 1.38 F.I. Further, the fluorescence index in assay [7] turned out to be 1.24 F.I; in assay [8] it was 1.22 F.I; in assay [9], 1.09 F.I; in assay [10] it was 1.09 F.I; in assay [11], 1.25 F.I; in [12], 1.07 F.I. In addition, the fluorescence index in [13] amounted to 1.1 F.I; in assay [14] it was 1 F.I; in assay [15] it was 1 F.I; in assay [16], 1.13 F.I; in assay [17], 1.32; in assay [18] it was 1.25 F.I. In addition, the fluorescence index was 1 F.I in [19], 1.38 in assay [20] and 1.25 in assay [21].

B4: Filamin B peptide #3 (peptide)
peptide: GLAPLEVRV
Take B4: the fluorescence index in [1] came out at 3.93 F.I; in assay [2] it was 3.82 F.I; in [3], 3.79 F.I; in assay [4] it was 3.61 F.I; in [5], 3.45 F.I; in assay [6], 4.21 F.I. Also, the fluorescence index in assay [7] was 4.3 F.I; in assay [8], 4.22 F.I; in [9], 4.27 F.I; in assay [10] it was 4.01 F.I; in assay [11], 3.64 F.I; in assay [12] it was 3.33 F.I. Also, the fluorescence index in assay [13] is 3.35 F.I; in assay [14], 2.94 F.I; in assay [15] it was 2.89 F.I; in assay [16], 2.6 F.I; in assay [17], 3.93; in assay [18], 3.1 F.I. Also, the fluorescence index in [19] stood at 2.1 F.I; in assay [20] it was 4.21; in assay [21], 3.64.

B5: Filamin B peptide #4 (peptide)
peptide: SLQESGLKV
With B5, the fluorescence index in assay [1] turned out to be 1.79 F.I; in [2], 1.4 F.I; in assay [3], 1.28 F.I; in assay [4], 1.09 F.I; in assay [5], 1.05 F.I; in [6] it was 1.96 F.I. Moreover, the fluorescence index in assay [7] was 1.43 F.I; in assay [8], 1.43 F.I; in assay [9], 1.18 F.I; in assay [10], 1.09 F.I; in assay [11], 1.61 F.I; in assay [12], 1.37 F.I. In addition, the fluorescence index in assay [13] was 1.13 F.I; in assay [14], 1 F.I; in assay [15], 1 F.I; in assay [16] it was 1.05 F.I; in assay [17], 1.79; in [18] it was 1.1 F.I. For the same molecule, the fluorescence index is 1 F.I in assay [19], 1.96 in assay [20] and 1.61 in assay [21].

Source of the values: patent US20090053750A1 (CELL GENESYS, published 2009).
